# In paper PMC8827053 (RSC Chemical Biology, 2021):
# Experiments:
# Assay type in all cases: cell-based
# SH-SY5Y cells [1] = experiment: Live/dead assay; conditions: Aβ42 10 μM, 24 h, calcein-AM/propidium iodide, ImageJ analysis
# SH-SY5Y cells [2] = experiment: Neuronal rescue from Aβ42-induced toxicity; conditions: Aβ42 10 μM preincubated 48 h pH 7.4, 24 h treatment, Alamar blue
# SH-SY5Y cells [3] = experiment: Membrane toxicity immunocytochemistry; conditions: Aβ42 10 μM, 3 h, pH 7.4, OC antibody, confocal
substance,measurement,setting,value
"Aβ42: Amyloid beta 42 peptide, the most toxic form of Aβ (PDB: 1Z0Q)","Dead cells, Aβ42 alone",SH-SY5Y cells [1],~36%
same,Cell viability with Aβ42 alone,SH-SY5Y cells [2],~64%
same,"Total area covered by red fluorescence-labelled Aβ aggregates, Aβ42 alone",SH-SY5Y cells [3],12.3%
